One substance from PMC5923308 can be followed below.

Where two headings read alike, the source gives them in different places.

Test [1] concerns the target crotoxin (CTX) from Crotalus durissus terrificus venom, heterodimer of CA and CB (Crotalus durissus terrificus). In words: SPR; Biacore T200; CTX immobilised on a CM5 chip by EDC/NHS coupling (10 mM acetate, pH 5.5); VHHs injected at 2.5 to 0.002 uM in HBS-p (10 mM HEPES, 150 mM NaCl, 3.4 mM EDTA, 0.005% Tween 20, pH 7.4); 30 uL/min, 25 °C; 1:1 Langmuir model. For orientation: Surface plasmon resonance follows binding to a sensor surface in real time, without labels.

The target is the same in test [2]. Put plainly: SPR; Biacore T200; CTX amine-coupled on a CM5 chip; VHH 2.5 to 0.002 µM in HBS-p (10 mM HEPES, 150 mM NaCl, 3.4 mM EDTA, 0.005% Tween 20, pH 7.4); 30 µL/min, 25 °C; 1:1 Langmuir model.
The target of test [3] is crotoxin basic subunit CB (phospholipase A2) from Crotalus durissus terrificus (Crotalus durissus terrificus) (UniProt P0CG56). In words: ELISA.
Test [4] has the same target.
Test [5] deals with crotoxin (CTX) from Crotalus durissus terrificus venom, heterodimer of CA and CB (Crotalus durissus terrificus).
The target in test [6] is crotoxin basic subunit CB (phospholipase A2) from Crotalus durissus terrificus (Crotalus durissus terrificus) (UniProt P0CG56). Put plainly: ELISA. This is another data set of the same source. (In general: An ELISA detects its analyte on a solid surface through an enzyme-linked reagent.)
For test [7] the target is unchanged. The source holds these as a separate data set.
The target of test [8] is crotoxin (CTX) from Crotalus durissus terrificus venom, heterodimer of CA and CB (Crotalus durissus terrificus). The source holds these as a separate data set.

Take VHH KF498604 (clone Cb-16): in test [1], the koff (usually the rate constant with which the complex falls apart) worked out at 0.00554 s⁻¹ and the kon (as a rule, the second-order rate constant of association) was 68100 M⁻¹ s⁻¹. For the same substance, the Kd – broadly, the constant that tells how readily two partners part at equilibrium – in test [2] stood at 81.3 nM. For the same substance, the % of the unheated sample's ELISA signal after 1 h at 85 °C in test [3] is 85%. Besides, in test [4], the inhibition of phospholipase activity on acyl-NBD-PC fluorescent phospholipids, toxin pre-incubated with VHH 30 min at 37 °C, toxin/VHH 1:5 to 1:40 (w/w) was 80%. In test [5], this substance displayed an inhibition of phospholipase activity on acyl-NBD-PC fluorescent phospholipids, toxin pre-incubated with VHH 30 min at 37 °C, toxin/VHH 1:5 to 1:40 (w/w) of 80%. Also, in test [6], the % of the unheated sample's ELISA signal after 1 h at 85 °C is greater than 75% and the % of the unheated sample's ELISA signal after 1 h at 95 °C is 100%. Also, in test [7], the reduction of LDH release from murine C2C12 myotubes after 3 h with CB (20 µg) pre-incubated with VHH at 1:2.5 (w/w), against CB alone stood at 59.3%. Besides, the reduction of plasma creatine kinase in Swiss mice 3 h after i.m. injection of CTX (1.5 µg) pre-incubated with VHH at 1:10, 1:20 and 1:40 (w/w) (46%, 63%, 78%), against CTX alone in test [8] worked out at 78.8%.
